Data published in patent US8338155B2, “Modified mevalonate kinase with reduced feedback inhibition” (DSM IP Assets B.V., priority 2004, dated 2012).
Numbering of substitutions follows the chain as printed. In names and notes the source's numbering stands.

B1: F59S: Saccharomyces cerevisiae mevalonate kinase mutant with substitution F59S (protein, listed as Saccharomyces cerevisiae)
chain: MSLPFLTSAPGKVIIFGEHSAVYNKPAVAASVSALRTYLLISESSAPDTIELDFPDISSNHKWSINDFNAITEDQVNSQKLAKAQQATDGLSQELVSLLDPLLAQLSESFHYHAAFCFLYMFVCLCPHAKNIKFSLKSTLPIGAGLGSSASISVSLALAMAYLGGLIGSNDLEKLSENDKHIVNQWAFIGEKCIHGTPSGIDNAVATYGNALLFEKDSHNGTINTNNFKFLDDFPAIPMILTYTRIPRSTKDLVARVRVLVTEKFPEVMKPILDAMGECALQGLEIMTKLSKCKGTDDEAVETNNELYEQLLELIRINHGLLVSIGVSHPGLELIKNLSDDLRIGSTKLTGAGGGGCSLTLLRRDITQEQIDSFKKKLQDDFSYETFETDLGGTGCCLLSAKNLNKDLKIKSLVFQLFENKTTTKQQIDDLLLPGNTNLPWTS
B2: I142N, L158S, L231I, T367S: Saccharomyces cerevisiae mevalonate kinase mutant with substitutions I142N, L158S, L231I and T367S (protein, listed as Saccharomyces cerevisiae)
chain: B1 chain with S59F, I142N, L158S, L231I, T367S
B3: K83E, S249P: Saccharomyces cerevisiae mevalonate kinase mutant with substitutions K83E and S249P (protein, listed as Saccharomyces cerevisiae)
chain: B1 chain with S59F, K83E, S249P
B4: H111N, K375N: Saccharomyces cerevisiae mevalonate kinase mutant with substitutions H111N and K375N (protein, listed as Saccharomyces cerevisiae)
chain: B1 chain with S59F, H111N, K375N
B5: P55L, C117S: Saccharomyces cerevisiae mevalonate kinase mutant with substitutions P55L and C117S (protein, listed as Saccharomyces cerevisiae)
chain: B1 chain with P55L, S59F, C117S
B6: L106P, S218P: Saccharomyces cerevisiae mevalonate kinase mutant with substitutions L106P and S218P (protein, listed as Saccharomyces cerevisiae)
chain: B1 chain with S59F, L106P, S218P
B7: WT: non-mutated Saccharomyces cerevisiae mevalonate kinase containing a His6-tag (SEQ ID NO:3) (protein, listed as Saccharomyces cerevisiae)
chain: MRGSHHHHHHGSACSLPFLTSAPGKVIIFGEHSAVYNKPAVAASVSALRTYLLISESSAPDTIELDFPDISFNHKWSINDFNAITEDQVNSQKLAKAQQATDGLSQELVSLLDPLLAQLSESFHYHAAFCFLYMFVCLCPHAKNIKFSLKSTLPIGAGLGSSASISVSLALAMAYLGGLIGSNDLEKLSENDKHIVNQWAFIGEKCIHGTPSGIDNAVATYGNALLFEKDSHNGTINTNNFKFLDDFPAIPMILTYTRIPRSTKDLVARVRVLVTEKFPEVMKPILDAMGECALQGLEIMTKLSKCKGTDDEAVETNNELYEQLLELIRINHGLLVSIGVSHPGLELIKNLSDDLRIGSTKLTGAGGGGCSLTLLRRDITQEQIDSFKKKLQDDFSYETFETDLGGTGCCLLSAKNLNKDLKIKSLVFQLFENKTTTKQQIDDLLLPGNTNLPWTS
modifications: His6-tag

test system: Saccharomyces cerevisiae mevalonate kinase; assay: Mevalonate kinase activity assay (NADH consumption, photometric at 340 nm): specific activity; type: biochemical; details: purified His6-tagged enzyme; WT = non-mutated His6-tagged mevalonate kinase
From the text: Methods for measuring specific activity are known to the person skilled in the art. The specific activity may for instance be determined via measuring the consumption of NADH. Suitable conditions for such measurement may be those as e.g. outlined in Example 1 except that, typically, saturating substrate concentrations are used or, in the case of enzyme inhibition at high substrate concentrations, at substrate concentrations that provide maximal activity under the particular experimental conditions.
(§1) For preparing mevalonate as substrate, 130 mg of DL-mevalonate lactone (FLUKA Chemie AG, Buchs, Switzerland) were dissolved in 5.5 ml of 0.2 M KOH and incubated for 15 min at 50° C. The solution was then adjusted to pH 7.0 by addition of 0.1 M HCl at room temperature (RT). Except if stated otherwise, the assay mixture consisted of 100 mM K2BPO/KH2PO4 (pH 7.0), 1 mM ATP, 2 mM MgCl2, 1 mM mevalonate, 0.5 mM phosphoenolpyruvate (PEP), 0.32 mM NADH, 20 U/ml pyruvate kinase and 27 U/ml lactate dehydrogenase (Sigma-Aldrich, St. Louis, Mo., USA). Inhibition was tested by adding 1 μM FPP.
(§2) Purification of His6-tagged mevalonate kinase and of His6-tagged mevalonate kinase mutant enzymes was done with Ni-NTA chromatography using the QIAexpress system/reagents of Qiagen. Upon addition of purified (His6-tagged) mevalonate kinase, enzymatic reaction reflected by consumption of NADH was followed by photometric measurement at 340 nm. One unit (1 U) of mevalonate kinase activity catalyzes the phosphorylation of 1 μmol of mevalonate per min.
(§3) Preparation of Mevalonate and Activity Measurement was Exactly Performed as Described in Example 1. 1 μM FPP was used for inhibition assays performed with the Saccharomyces cerevisiae mevalonate kinase wild-type enzyme and its mutants.

| Molecule | Specific activity (% of wild-type) |
| --- | --- |
| B1 | 31 % of wild-type |
| B2 | 61 % of wild-type |
| B3 | 78 % of wild-type |
| B4 | 87 % of wild-type |
| B5 | 60 % of wild-type |
| B6 | 42 % of wild-type |
| B7 | 100 % of wild-type |

test system: Saccharomyces cerevisiae mevalonate kinase; assay: Inhibition of mevalonate kinase activity by the feedback inhibitor FPP: feedback resistance; type: biochemical; details: 1 μM FPP; % resistance=100·((d/c)−(b/a))/(1−(b/a)) relative to wild-type
Description: “Feedback resistance” as used herein may be any increase in resistance to “feedback inhibition” (as defined above). Feedback resistance can be analyzed in different ways known to those skilled in the art. An appropriate example of such an analysis is shortly described herein: mevalonate kinase activity is measured in an activity assay at non-saturating concentrations of for instance ATP (or of another phosphate donor) and mevalonate (or mevalonate analogue), i.e., at for instance ATP (or phosphate donor) and mevalonate (or mevalonate analogue) concentrations around which the reaction rate is sensitive to changes of these substrate concentrations, e.g., at concentrations around the respective Km values of the enzyme under investigation for these substrates. The activities of both wild-type mevalonate kinase and of a variant/mutant of this enzyme are measured under otherwise identical conditions both in the absence and presence of a relevant concentration of a feedback inhibitor, i.e., at a concentration of feedback inhibitor affording significant inhibition of the wild-type mevalonate kinase. If the extent of inhibition (e.g., % inhibition) by the feedback inhibitor is lower for the mutant than for the wild-type enzyme, then the mutant is feedback resistant in the context of the present patent application. Once a feedback resistant variant/mutant has been identified, the same procedure as described above may be applied to identify further improved mutants, i.e., mutants that are even more feedback resistant. Feedback resistance (%) is calculated as follows: if (a) and (b) are the measured mevalonate kinase activities of the wild-type enzyme in the absence and presence, respectively, of the feedback inhibitor (e.g., FPP), and if (c) and (d) are the measured mevalonate kinase activities of the mutant enzyme in the absence and presence, respectively, of the same feedback inhibitor, then % feedback resistance is: % resistance=100·((d/c)−(b/a))/(1−(b/a))
as §1, §2, §3
Feedback resistance (%) was calculated according to the following formula: % resistance=100·((d/c)−(b/a))/(1−(b/a)) wherein (a) and (b) refer to the measured mevalonate kinase activities of the wild-type enzyme in the absence and presence, respectively, and (c) and (d) refer to the measured mevalonate kinase activities of the mutant enzyme in the absence and presence, respectively, of FPP. The results are shown in Tab. 1, wherein WT represents the non-mutated mevalonate kinase containing a His6-tag (SEQ ID NO:3).

| Molecule | Feedback resistance (%) |
| --- | --- |
| B1 | 56 |
| B2 | 58 |
| B3 | 37 |
| B4 | 65 |
| B5 | 58 |
| B6 | 24 |
| B7 | 0 |
